Patent US20030044789A1, “Identification and quantification of a protein carrying an N-terminal polyhistidine affinity tag” (priority 2000, published 2003)

System: Penta-His antibody
Assay: Competition study with HisTagged proteins (HisTag FPIA)
Format: binding
Settings: 1-2 nM fluor-AHHHHHHG, 10 nM Penta-His antibody, approx. 60 min at room temperature; read-out: approximate IC50 (concentration of competitor required to decrease FP signal by 50%)
Protocol: Purified N-terminal HisTagged proteins were serially diluted into PBS +0.01% NP-40 in a multiwell plates. 1-2 nM fluorescein labeled peptide (fluor-AHHHHHHG) and 10 nM of Penta-His antibody were then added to each reaction to a final volume of 50-100 ul. After approximately 60 min incubation at room temperature to insure equilibrium binding, the polarization was measured on a Tecan Polarian multiwell instrument.
Protein Kinase A (PKA) is a serine/threonine kinase, ZAP-70 is a tyrosine kinase, and the Estrogen Receptor Ligand Binding Domain (ER-LBD) is comprised of the C-terminal 300 amino acids of ERα; all three proteins were highly purified and active.

- IC50: ~36 nM
B1: ZAP-70: recombinant human tyrosine kinase with N-terminal six-histidine fusion (protein, UniProt P43403 1-619, looked up)
Tyrosine-protein kinase ZAP-70: MPDPAAHLPFFYGSISRAEAEEHLKLAGMADGLFLLRQCLRSLGGYVLSLVHDVRFHHFPIERQLNGTYAIAGGKAHCGPAELCEFYSRDPDGLPCNLRKPCNRPSGLEPQPGVFDCLRDAMVRDYVRQTWKLEGEALEQAIISQAPQVEKLIATTAHERMPWYHSSLTREEAERKLYSGAQTDGKFLLRPRKEQGTYALSLIYGKTVYHYLISQDKAGKYCIPEGTKFDTLWQLVEYLKLKADGLIYCLKEACPNSSASNASGAAAPTLPAHPSTLTHPQRRIDTLNSDGYTPEPARITSPDKPRPMPMDTSVYESPYSDPEELKDKKLFLKRDNLLIADIELGCGNFGSVRQGVYRMRKKQIDVAIKVLKQGTEKADTEEMMREAQIMHQLDNPYIVRLIGVCQAEALMLVMEMAGGGPLHKFLVGKREEIPVSNVAELLHQVSMGMKYLEEKNFVHRDLAARNVLLVNRHYAKISDFGLSKALGADDSYYTARSAGKWPLKWYAPECINFRKFSSRSDVWSYGVTMWEALSYGQKPYKKMKGPEVMAFIEQGKRMECPPECPPELYALMSDCWIYKWEDRPDFLTVEQRMRACYYSLASKVEGPPGSTQKAEAACA
modifications: N-terminal polyhistidine tag
